According to PMC11818568, “Characterization of Tetrathionate Hydrolase from Acidothermophilic Sulfur-Oxidizing Archaeon Metallosphaera cuprina Ar-4” (International Journal of Molecular Sciences, 2025):

Substrate: O=S(=O)(O)SSS(=O)(=O)O
Assay: HPLC discontinuous assay, Michaelis-Menten
Format: biochemical, Metallosphaera cuprina
Details: pH 6.0, 95 °C, 1.15 µg enzyme, K2S4O6 varied

B1: TTHMc (tetrathionate hydrolase, Mcup_1281) (Metallosphaera cuprina Ar-4) (protein)
chain: PSITQIVSQVITPIPQPIVRTYDIYNTTYFPYEVKVTYYPGNATSQNLGLPGSWLVTNGGQSHNAVVDTTCTELIQGVSWQQDFAHMAGAALIPLSAPENMLPGSNVMGTRSALVMLTQMVGEPLGVSLADNLLFVEEDSGPGSIFAVNPLNGQVVWYATGLASYAMNNPIVYNGIVYVTVGDVGFNFANFVHYENGQYSAIHRGMAYGAIYAFNASDGILLWMRFTMGEAMPAPAVYDGILAYSDGGGEFVGVNATTGQTLWMDSIPGLFDSMSSVNYYVMPNGTPLFVAGFTSLTEPFGLLVAVNGITGKMVWNASLPSPNKPFNTGMGDVPPAVDQSLGIVVQSTVANAEPNGTVDTMVLAVNATNGHVLWVTNLGRGYTPPAFKGAVPMIYNNTVFVGAPSLGTEFALNISTGRIIWQTRLNGISLPPTAPGGPRGSATIYDNLLWIAGGPNVYVLNPHNGDLLQQYYVGGRFGIVNPVIAGNTMYLTNSYGWVIAIPLYQVFPLFQYYTNS
notes: native enzyme purified from tetrathionate-grown M. cuprina Ar-4 cells (soluble fraction; DEAE, HIC, size exclusion, Q-Sepharose); no tag; SDS band about 54 kDa; no homodimer observed
- Km: 350 µM
